What was measured:
[1] = target: mAb R24 (anti-GD3 monoclonal antibody, IgG3); test: competitive ELISA: BEC2 pre-incubated with mAb R24 (30 min), remaining R24 binding to plate coated with 0.1 µg GD3 ganglioside
[2] = target: mAb R24 (anti-GD3 monoclonal antibody, IgG3); test: competitive ELISA: peptide pre-incubated with mAb R24, remaining R24 binding to GD3-coated plate
[3] = target: mAb R24 (anti-GD3 monoclonal antibody, IgG3); test: competitive ELISA: peptide pre-incubated with mAb R24 (30 min), remaining R24 binding to plate coated with 0.1 µg GD3 ganglioside

Molecule	IC50 [1]	concentration giving full inhibition [1]	concentration giving full inhibition [2]	IC50 [3]
mAb BEC2 (anti-idiotypic monoclonal antibody, IgG2b)	10 mg/L	60 µg/mL	–	–
GLAPPDYAERFFLIS [GD3-like peptide PGD3-3]	–	–	> 600 pmol/mL	0.3 µM
SVAVPPPADDPSWRY [GD3-like peptide PGD3-6]	–	–	> 600 pmol/mL	0.25 µM

Continued, values first:

IC50 [1]	concentration giving full inhibition [1]	concentration giving full inhibition [2]	IC50 [3]	Molecule
–	–	> 600 pmol/mL	0.15 µM	RHAYRSMAEWGFLYS [GD3-like peptide PGD3-4]
–	–	> 600 pmol/mL	0.1 µM	ACTPYAMLPGCK [GD3-like peptide PGD3-5]

Source: patent publication US20110131669A1
